From paper PMC11222466

Legend:
[1] = target: Purified PHB domain of FloA (Staphylococcus aureus); test: SEC; purified FloA variants at ~60 μM, Superdex 200 Increase 10/300 GL, 300 mM NaCl, 50 mM Tris-HCl pH 8.0, 10% glycerol, 0.02% DDM
[2] = target: PHB-CC_(ΔEA4), PHB-CC variant with A286E287A288 deleted (Staphylococcus aureus); test: as above
[3] = target: Purified OBL domain of NfeD (Staphylococcus aureus); test: SEC; purified NfeD variants at ~60 μM, Superdex 75 Increase 10/300 GL, 300 mM NaCl, 50 mM Tris-HCl pH 8.0, 10% glycerol, 0.02% DDM
[4] = target: Purified native NfeD (Staphylococcus aureus); test: as above

“Purified PHB domain of FloA (domain or fragment)” was tested, and the stoichiometry N [1] was 2.
“PHB-CC_(ΔEA4), PHB-CC variant with A286E287A288 deleted (domain or fragment)” gave a stoichiometry N [2] of 2.
“Purified OBL domain of NfeD (domain or fragment)” gave a stoichiometry N [3] of 2.
Substance Purified native NfeD (natural protein) has a stoichiometry N [4] of 2.
